Consider two substances from doi:10.1101/2025.02.17.638590.

The target in the test is free tubulin (bovine) (UniProt Q6B856). The experiment in a line: tubulin recruitment assay.
Chain of UniProt Q6B856 (Q6B856 whole entry, looked up): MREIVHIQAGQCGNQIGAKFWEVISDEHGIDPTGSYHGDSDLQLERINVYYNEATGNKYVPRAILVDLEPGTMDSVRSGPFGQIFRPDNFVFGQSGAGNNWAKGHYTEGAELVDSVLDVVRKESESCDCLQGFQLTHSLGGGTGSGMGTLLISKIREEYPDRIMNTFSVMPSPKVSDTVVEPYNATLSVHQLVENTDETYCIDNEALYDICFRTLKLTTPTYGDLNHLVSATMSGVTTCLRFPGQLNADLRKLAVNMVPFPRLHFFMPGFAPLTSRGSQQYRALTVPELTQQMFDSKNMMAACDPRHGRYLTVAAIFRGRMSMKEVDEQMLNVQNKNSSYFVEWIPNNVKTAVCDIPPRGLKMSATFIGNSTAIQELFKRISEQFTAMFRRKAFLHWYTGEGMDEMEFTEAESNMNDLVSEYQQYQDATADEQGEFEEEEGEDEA

The substance “MAP6d1-Δ2-35 (from UniProt Q14BB9 1-191) (natural protein)” had a percent of stabilised microtubules with recruited free tubulin of 9%.
On to “MAP6d1 (from UniProt Q14BB9 1-191) (natural protein)”, for which the percent of pre-polymerised microtubules with recruited free tubulin was determined as 57%.
